For four molecules, OD450 Fibrinogen results are on record in patent publication US20200157519A1.

The chains are these.
B1: scFv clone 7A3 (scFv, V domains shown)
VH: EVQLVESGGGLVQPGGSLRLSCAASGFTINDWSIHWVRQAPGKGLEWVAYIGPFWGSTFYADSVKGRFTISADTSKNTAYLQMNSLRAEDTAVYYCARGYFGFDYWGQGTLVTVSS
VL: DIQMTQSPSSLSASVGDRVTITCRASQDVGGWVAWYQQKPGKAPKLLISSPRSLYSGVPSRFSGSGSGTDFTLTISSLQPEDFATYYCQQYFSSPFTFGQGTKVEIKR
B2: scFv clone 8F2 (scFv, V domains shown)
VH: EVQLVESGGGLVQPGGSLRLSCAASGFTINNYGIHWVRQAPGKGLEWVAGIWPYWGYTYYADSVKGRFTISADTSKNTAYLQMNSLRAEDTAVYYCARFDSNSYSSYSDGFMDYWGQGTLVTVSS
VL: DIQMTQSPSSLSASVGDRVTITCRASQDVDNSVAWYQQKPGKAPKLLISSARSLYSGVPSRFSGSGSGTDFTLTISSLQPEDFATYYCQQYYNYPITFGQGTKVEIKR
B3: scFv clone 3C2 (scFv, V domains shown)
VH: EVQLVESGGGLVQPGGSLRLSCAASGFTIGNSSIHWVRQAPGKGLEWVAGIWPYWGSTYYADSVKGRFTISADTSKNTAYLQMNSLRAEDTAVYYCARFGINNDGFMDYWGQGTLVTVSS
VL: DIQMTQSPSSLSASVGDRVTITCRASQDVSGWVAWYQQKPGKAPKLLISSTGSLYSGVPSRFSGSGSGTDFTLTISSLQPEDFATYYCQQYYDFPITFGQGTKVEIKR
B4: phage-displayed 3D5 scFv (scFv)
scFv: DIQMTQSPSSLSASVGDRVTITCRASQDVSNNVAWYQQKPGKAPKLLIFWSPWLYSGVPSRFSGSGSGTDFTLTISSLQPEDFATYYCQQGWDSPVTFGQGTKVEIKRGGGGSGGGGSGGGGSEVQLVESGGGLVQPGGSLRLSCAASGFTISDFGIHWVRQAPGKGLEWVASIWPSGGYTYYADSVKGRFTISADTSKNTAYLQMNSLRAEDTAVYYCARSWFYSWYDYWGQGTLVTVSS

Sequence of human fibrinogen (human) (P02671 20-629 limits assumed, chain 1 of 3): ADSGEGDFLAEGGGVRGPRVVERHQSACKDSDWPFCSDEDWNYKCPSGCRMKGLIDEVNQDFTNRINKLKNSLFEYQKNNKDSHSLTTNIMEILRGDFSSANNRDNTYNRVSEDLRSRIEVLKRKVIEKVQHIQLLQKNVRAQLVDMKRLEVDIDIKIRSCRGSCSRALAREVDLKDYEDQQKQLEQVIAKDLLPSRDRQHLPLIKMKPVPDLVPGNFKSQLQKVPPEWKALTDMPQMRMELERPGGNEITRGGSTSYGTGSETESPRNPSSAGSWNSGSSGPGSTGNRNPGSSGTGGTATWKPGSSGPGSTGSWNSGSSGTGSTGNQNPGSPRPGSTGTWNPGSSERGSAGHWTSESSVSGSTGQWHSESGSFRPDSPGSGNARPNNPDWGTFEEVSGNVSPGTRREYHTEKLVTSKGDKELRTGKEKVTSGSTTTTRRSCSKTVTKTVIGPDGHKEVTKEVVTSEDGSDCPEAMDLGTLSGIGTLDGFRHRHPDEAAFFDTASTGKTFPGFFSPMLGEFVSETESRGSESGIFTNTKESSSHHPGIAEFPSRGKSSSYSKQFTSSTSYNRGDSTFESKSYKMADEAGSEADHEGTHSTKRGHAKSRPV
Sequence of human fibrinogen (human) (P02675 31-491 limits assumed, chain 2 of 3, further chain): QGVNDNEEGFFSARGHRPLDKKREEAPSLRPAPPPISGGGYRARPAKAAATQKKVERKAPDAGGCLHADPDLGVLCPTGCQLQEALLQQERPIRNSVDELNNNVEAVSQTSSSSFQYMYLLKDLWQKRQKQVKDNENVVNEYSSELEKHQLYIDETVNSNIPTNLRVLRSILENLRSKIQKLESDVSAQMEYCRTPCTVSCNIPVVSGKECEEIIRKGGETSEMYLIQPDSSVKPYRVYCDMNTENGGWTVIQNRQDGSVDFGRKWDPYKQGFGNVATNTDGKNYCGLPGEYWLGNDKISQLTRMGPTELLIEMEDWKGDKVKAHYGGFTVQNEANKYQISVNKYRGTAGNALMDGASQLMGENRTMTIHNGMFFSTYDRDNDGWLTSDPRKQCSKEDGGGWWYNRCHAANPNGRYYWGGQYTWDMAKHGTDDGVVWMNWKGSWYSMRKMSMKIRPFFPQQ
Sequence of human fibrinogen (human) (P02679 other isoform, or with tags, fused parts or gaps limits assumed, chain 3 of 3, further chain): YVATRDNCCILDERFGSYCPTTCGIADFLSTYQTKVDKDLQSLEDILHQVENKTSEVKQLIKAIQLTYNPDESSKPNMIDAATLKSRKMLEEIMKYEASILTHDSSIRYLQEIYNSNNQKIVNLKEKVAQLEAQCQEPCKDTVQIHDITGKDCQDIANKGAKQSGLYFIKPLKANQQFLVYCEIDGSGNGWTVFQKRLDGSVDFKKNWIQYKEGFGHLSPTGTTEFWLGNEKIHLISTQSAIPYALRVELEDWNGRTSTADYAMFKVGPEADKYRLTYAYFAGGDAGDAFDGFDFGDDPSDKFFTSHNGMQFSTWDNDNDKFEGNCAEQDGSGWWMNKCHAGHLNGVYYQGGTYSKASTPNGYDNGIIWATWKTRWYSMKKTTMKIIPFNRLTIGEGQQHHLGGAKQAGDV

This assay concerns the target human fibrinogen (human) (UniProt P02671). The assay is described as follows: single colony ELISA, secreted scFv on coated fibrinogen (negative control antigen), anti-E-tag-HRP. (In general: An ELISA detects its analyte on a solid surface through an enzyme-linked reagent.)
On to B1, for which the OD450 Fibrinogen was determined as 0.0209 OD450.

In turn, B2 showed an OD450 Fibrinogen of 0.0366 OD450. With B3 the figure was 0.0117 OD450. The molecule B4 registered an OD450 Fibrinogen of 0.0022 OD450.
